Patent US5262522

Key:
[1] = target: Endogenous high affinity simian LIF receptors on COS-7 cells (simian); assay: Scatchard analysis of 125I-LIF binding to COS-7 cells transfected with pHLIFR-65 and CAV, high affinity site (curve B, site 1)
[2] = target: Endogenous high affinity simian LIF receptors on COS-7 cells (simian); assay: Scatchard analysis of 125I-LIF binding to non-transfected COS-7 cells (curve E)

Kd [1]: 0.033 nM | Kd [2]: 0.03 nM
Substance: Recombinant human leukemia inhibitory factor (LIF) (from UniProt P15018) (ligand)
